Laboratory results taken from patent publication US20180127498A1 (UCB, published 2018).
Values joined by “and” are separate entries in the source; they are usually repeats but may differ in a detail not shown here. Equal values may be shown once.

Assays:
[1] = target: T1, Human FcRn extracellular domain (non-covalent complex of human FcRn alpha chain extracellular domain and … (human, UniProt P55899 24-297; P61769 21-119); test: SPR Biacore T200, binder captured via anti-human F(ab')2, FcRn ECD as analyte, pH6; pH 6
T1 construct: also called hFcRn
Description: (§1) Biomolecular interaction analysis using surface plasmon resonance technology (SPR) was performed on a Biacore T200 system (GE Healthcare) and binding to human FcRn extracellular domain determined. Human FcRn extracellular domain was provided as a non-covalent complex between the human FcRn alpha chain extracellular domain (SEQ ID NO: 21) and β2 microglobulin (β2M) (SEQ ID NO: 23). Affinipure F(ab′)₂ fragment goat anti-human IgG, F(ab′)₂-specific (Jackson ImmunoResearch Lab, Inc.) at 50 μg/ml in 10 mM NaAc, pH 5 buffer was immobilized on a CMS Sensor Chip via amine coupling chemistry to a capture level between 4000-5000 response units (RU) using HBS-EP⁺(GE Healthcare) as the running buffer.
(§2) The antibody, 1735h5.hFab-scFv.768 was diluted to 0.25 μg/ml in running buffer and an injection 60 s at 10 μl/min was used for capture by the immobilized anti-human F(ab)₂. […] The surface was regenerated at 10 μl/min by 2×60 s 50 mM HCl for the running buffer at pH6 or by 60 s 40 mM HCl and 30 s 10 mM NaOH for the running buffer at pH7.4. The data was analysed using Biacore T200 evaluation software (version 1.0) using the 1:1 binding model with local Rmax.

[2] = target: T2, Cynomolgus monkey FcRn extracellular domain (non-covalent complex of Cynomolgus monkey FcRn alpha chain … (Cynomolgus monkey, UniProt Q8SPV9 24-297; Q8SPW0 21-119); test: SPR Biacore T200, binder captured via anti-human F(ab')2, cyno FcRn ECD as analyte, pH7.4, average of 5; pH 7.4
T2 construct: also called non-human primate FcRn
Description: (§3) Biomolecular interaction analysis using surface plasmon resonance technology (SPR) was performed on a Biacore T200 system (GE Healthcare) and binding to Cynomolgus monkey FcRn extracellular domain determined. Cynomolgus monkey FcRn extracellular domain was provided as a non-covalent complex between the Cynomolgus monley FcRn alpha chain extracellular domain (SEQ ID NO: 17) and […] (β2M) (SEQ ID NO: 18). Affinipure F(ab′)₂ fragment goat anti-human IgG, F(ab′)₂-specific (Jackson ImmunoResearch Lab, Inc.) at 50 μg/ml in 10 mM NaAc, pH 5 buffer was immobilized on a CMS Sensor Chip via amine coupling chemistry to a capture level between 4000-5000 response units (RU) using HBS-EP⁺ (GE Healthcare) as the running buffer.
(§4) The antibody, 1735h5.hFab-scFv.768 diluted to0.5 μg/ml in running buffer and an injection of 60 s at 10 μl/min was used for capture by the immobilized anti-human F(ab′)₂. […] The surface was regenerated at 10 μl/min by 2×60 s 50 mM HCl for the running buffer at pH6 or by 60 s 40 mM HCl and 30 s 10 mM NaOH for the running buffer at pH7.4.
(§5) The data was analysed using Biacore T200 evaluation software (version 1.0) using the 1:1 binding model with local Rmax.

[3] = target: T1, Human FcRn extracellular domain …; test: SPR Biacore T200, binder captured via anti-human F(ab')2, FcRn ECD as analyte, pH7.4, average of 5; pH 7.4
Description: as §1, §2

[4] = target: T2, Cynomolgus monkey FcRn extracellular …; test: SPR Biacore T200, binder captured via anti-human F(ab')2, cyno FcRn ECD as analyte, pH7.4; pH 7.4
Description: as §3, §4, §5

[5] = target: T1, Human FcRn extracellular domain …; test: SPR Biacore T200, binder captured via anti-human F(ab')2, FcRn ECD as analyte, pH6, average of 5; pH 6
Description: as §1, §2

[6] = target: T2, Cynomolgus monkey FcRn extracellular …; test: SPR Biacore T200, binder captured via anti-human F(ab')2, cyno FcRn ECD as analyte, pH6; pH 6
Description: as §3, §4, §5

[7] = target: T2, Cynomolgus monkey FcRn extracellular …; test: SPR Biacore T200, binder captured via anti-human F(ab')2, cyno FcRn ECD as analyte, pH6, average of 5; pH 6
Description: as §3, §4, §5

- kon [1]: 1.2e+06 M⁻¹ s⁻¹ and 1.1e+06 M⁻¹ s⁻¹ (3×)
- Kd [2]: 45 pM
- koff [2]: 4.52e-05 s⁻¹
- kon [2]: 1e+06 M⁻¹ s⁻¹
- Kd [3]: 45.8 pM
- koff [3]: 3.94e-05 s⁻¹
- kon [3]: 861000 M⁻¹ s⁻¹
- kon [4]: 1e+06 M⁻¹ s⁻¹ (2×) and 999000 M⁻¹ s⁻¹
- Kd [5]: 160 pM
- koff [5]: 0.000181 s⁻¹
- kon [5]: 1.13e+06 M⁻¹ s⁻¹
- kon [6]: 1.26e+06 M⁻¹ s⁻¹ and 1.24e+06 M⁻¹ s⁻¹
- Kd [7]: 158 pM
- koff [7]: 0.000197 s⁻¹
- kon [7]: 1.25e+06 M⁻¹ s⁻¹
B1: 1735h5.hFab-scFv.768 (bispecific antibody)
heavy: EVQLVESGGGLVQPGGSLRLSCAASGFSLSTYGVGVGWVRQAPGKGLEWLANIWWDDDKRYNPSLENRFTISRDNAKNSAYLQMNSLRAEDTAVYYCARTPAYYGSHPPFDYWGQGTMVTVSSASTKGPSVFPLAPSSKSTSGGTAALGCLVKDYFPEPVTVSWNSGALTSGVHTFPAVLQSSGLYSLSSVVTVPSSSLGTQTYICNVNHKPSNTKVDKKVEPKSCSGGGGTGGGGSEVQLLESGGGLVQPGGSLRLSCAVSGIDLSNYAINWVRQAPGKCLEWIGIIWASGTTFYATWAKGRFTISRDNSKNTVYLQMNSLRAEDTAVYYCARTVPGYSTAPYFDLWGQGTLVTVSSGGGGSGGGGSGGGGSGGGGSDIQMTQSPSSVSASVGDRVTITCQSSPSVWSNFLSWYQQKPGKAPKLLIYEASKLTSGVPSRFSGSGSGTDFTLTISSLQPEDFATYYCGGGYSSISDTTFGCGTKVEIKRT
light: DIQMTQSPSSLSASVGDRVTITCRTSEDIYTNLAWYQQKPGKVPKLLIYVAKTLQEGVPSRFSGSGSGTHYTLTISSLQPEDVATYYCLQGFKFPWTFGGGTKVEIKRTVAAPSVFIFPPSDEQLKSGTASVVCLLNNFYPREAKVQWKVDNALQSGNSQESVTEQDSKDSTYSLSSTLTLSKADYEKHKVYACEVTHQGLSSPVTKSFNRGEC
notes: Anti-FcRn Fab (1638.g49 V-regions) fused at the C-terminus of CH1 to an anti-albumin disulphide stabilised scFv; expressed in CHO DG44; Monovalent for FcRn; also called Fab-dsscFv fusion protein comprising the 1638.g49 variable domains; anti-hFcRn 1735h5.hFab-scFv.768
